According to PMC5995566 (Biochemistry, 2017):

Target: T1, human S100A5 (human)
T1 sequence (P33763 1-92, looked up): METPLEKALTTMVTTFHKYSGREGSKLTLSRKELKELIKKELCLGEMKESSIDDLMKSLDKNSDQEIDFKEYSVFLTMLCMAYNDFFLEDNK
Test: ITC

- Kd: 18 ± 4 µM
- dH: -3.6 ± 1 kcal/mol
Binder: RRLLFYKYVYKR [12 amino acid fragment of the protein NCX1]
